According to article PMC4855144:

Biological target: GFP-N-WASP WH1-GBD
Assay: co-IP; GFP microbeads precipitate GFP-N-WASP and fragments ΔWA, WH1, WH1-GBD from HEK293T cell extracts; endogenous CRN7 detected with mAb K37-142-1; ratio of co-IP to IP

Sequence of GFP-N-WASP WH1-GBD (O00401 whole entry, the tested form may be a part): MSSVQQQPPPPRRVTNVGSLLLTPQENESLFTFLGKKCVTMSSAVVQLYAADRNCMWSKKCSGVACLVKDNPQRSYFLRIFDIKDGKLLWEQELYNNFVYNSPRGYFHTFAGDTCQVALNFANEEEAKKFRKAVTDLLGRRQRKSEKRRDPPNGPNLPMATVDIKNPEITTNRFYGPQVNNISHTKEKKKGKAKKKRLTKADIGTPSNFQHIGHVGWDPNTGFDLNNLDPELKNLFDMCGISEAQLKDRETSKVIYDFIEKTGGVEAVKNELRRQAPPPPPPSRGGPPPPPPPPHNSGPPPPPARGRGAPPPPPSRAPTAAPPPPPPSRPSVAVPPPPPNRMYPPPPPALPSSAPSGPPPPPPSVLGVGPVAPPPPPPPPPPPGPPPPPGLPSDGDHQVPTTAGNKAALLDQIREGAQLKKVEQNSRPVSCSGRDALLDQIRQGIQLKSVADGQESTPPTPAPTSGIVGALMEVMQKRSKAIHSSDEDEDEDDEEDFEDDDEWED

B1: endogenous CRN7 (Coronin7) of HEK293T cells (natural protein)
chain: MNRFRVSKFRHTEARPPRRESWISDIRAGTAPSCRNHIKSSCSLIAFNSDRPGVLGIVPLQGQGEDKRRVAHLGCHSDLVTDLDFSPFDDFLLATGSADRTVKLWRLPGPGQALPSAPGVVLGPEDLPVEVLQFHPTSDGILVSAAGTTVKVWDAAKQQPLTELAAHGDLVQSAVWSRDGALVGTACKDKQLRIFDPRTKPRASQSTQAHENSRDSRLAWMGTWEHLVSTGFNQMREREVKLWDTRFFSSALASLTLDTSLGCLVPLLDPDSGLLVLAGKGERQLYCYEVVPQQPALSPVTQCVLESVLRGAALVPRQALAVMSCEVLRVLQLSDTAIVPIGYHVPRKAVEFHEDLFPDTAGCVPATDPHSWWAGDNQQVQKVSLNPACRPHPSFTSCLVPPAEPLPDTAQPAVMETPVGDADASEGFSSPPSSLTSPSTPSSLGPSLSSTSGIGTSPSLRSLQSLLGPSSKFRHAQGTVLHRDSHITNLKGLNLTTPGESDGFCANKLRVAVPLLSSGGQVAVLELRKPGRLPDTALPTLQNGAAVTDLAWDPFDPHRLAVAGEDARIRLWRVPAEGLEEVLTTPETVLTGHTEKICSLRFHPLAANVLASSSYDLTVRIWDLQAGADRLKLQGHQDQIFSLAWSPDGQQLATVCKDGRVRVYRPRSGPEPLQEGPGPKGGRGARIVWVCDGRCLLVSGFDSQSERQLLLYEAEALAGGPLAVLGLDVAPSTLLPSYDPDTGLVLLTGKGDTRVFLYELLPESPFFLECNSFTSPDPHKGLVLLPKTECDVREVELMRCLRLRQSSLEPVAFRLPRVRKEFFQDDVFPDTAVIWEPVLSAEAWLQGANGQPWLLSLQPPDMSPVSQAPREAPARRAPSSAQYLEEKSDQQKKEELLNAMVAKLGNREDPLPQDSFEGVDEDEWD
Q: How did the fold binding (co-IP to IP ratio) over WH1 alone turn out when B1 was run?
A: 4 fold
